According to US20060292117A1:

Target: serpin enzyme complex receptor (secR) on IB3 cells
Assay: cell-based or functional assay

In the case of “VP1 serpin virus (AAV2 capsid with serpin ligand FVFLI substituted for the capsid sequence immediately after aa 34) (from UniProt P03135 1-34; P03135 40-735; P03135 138-735; P03135 203-735)”, the infectivity on IB3 cells (hAAT ELISA) against wt capsid is reported as 62 fold.
